Patent US20240343811A1 (SHANDONG SIMCERE BIOPHARMACUTICAL, published 2024)
Values joined by “and” are separate entries in the source; they are usually repeats but may differ in a detail not shown here. Equal values may be shown once. Read-outs that look alike come from different tables or passages of the source.

T1: human CD16b (NA1), full length, on FlpinCHO cells (human, UniProt O75015 17-200)
T1 construct: also called FlpinCHO-human CD16b (NA1)
T1 chain: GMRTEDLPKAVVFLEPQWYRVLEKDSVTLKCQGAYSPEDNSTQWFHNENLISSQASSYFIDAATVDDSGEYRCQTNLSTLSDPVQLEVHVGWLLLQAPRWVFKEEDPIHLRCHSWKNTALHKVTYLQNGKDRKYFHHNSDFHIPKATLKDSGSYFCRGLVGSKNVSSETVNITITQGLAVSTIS

T2: human CD16b (NA2), full length, on FlpinCHO cells (human, UniProt O75015 17-200)
T2 construct: also called FlpinCHO-human CD16b (NA2)
T2 chain: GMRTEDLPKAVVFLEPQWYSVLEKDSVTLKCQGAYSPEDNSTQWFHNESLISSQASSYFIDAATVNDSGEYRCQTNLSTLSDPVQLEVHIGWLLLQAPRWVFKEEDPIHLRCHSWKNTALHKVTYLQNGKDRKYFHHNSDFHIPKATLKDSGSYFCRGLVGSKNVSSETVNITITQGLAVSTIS


Columns and labels:
[1] = target: T3, human CD16a (158F), full length, on FlpinCHO cells (human, UniProt P08637 17-254); assay: FACS on FlpinCHO cells
[2] = target: T4, human CD16a (158V), full length, on cells (human, UniProt P08637 17-254); assay: FACS on FlpinCHO cells
T4 construct: also used as target for the bought Jurkat-NFAT reporter line stably expressing human CD16a (158V); also called FlpinCHO-human CD16a (158V); FlpinCHO-CD16a (158V)

[3] = target: T1, human CD16b (NA1), full length, on …; assay: FACS on FlpinCHO cells
In short: (§1)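 Trypsin-detached FlpinCHO cells expressing full-length CD16b were blocked in PBS+2% BSA and incubated on ice for 1 hour with antibody at varying concentrations. Binding read by flow cytometry as MFI; EC50 from curve fitting.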

[4] = target: T2, human CD16b (NA2), full length, on …; assay: FACS on FlpinCHO cells
In short: as §1

[5] = target: T5, cynomolgus monkey CD16, full length, on FlpinCHO cells (cynomolgus monkey, UniProt Q8SPW2 17-254); assay: FACS on FlpinCHO cells
T5 construct: also called FlpinCHO-cyno CD16; Flipin CHO-cyno CD16
Procedure: (§2) The required cells were scale-up cultured in a T-75 cell culture flask to the logarithmic growth phase. The medium was aspirated, and the cells were washed twice with a PBS buffer and then digested with trypsin. After the digestion was terminated, the cells were washed twice with the PBS buffer. The cells were counted, and then the cell pellet was resuspended with a [PBS+2% (w/w) BSA] blocking solution to 2×10⁶ cells/ml, and added to a 96-well FACS reaction plate at 50 μl/well. […] 50 μl/well of the antibody to be detected was added at different concentrations, and incubated on ice for 1 hour. […] The mixture was centrifuged and washed 5 times with PBS, and FACS (FACS Canto II, purchased from BD Company) was used for detection and result analysis. Data analysis was performed by software (CellQuest) to obtain the mean fluorescence intensity (MFI) of the cells. Then, software (GraphPad Prism8) was used for analysis, data fitting and EC50 value calculation.
(§3) Flipin CHO-cyno CD16 cells were subjected to FACS detection and data analysis according to the method of Example 3.1.

[6] = target: T4, human CD16a (158V), full length, on …; assay: cell-based or functional assay
Human CD16a (158F)-his = target: T6, Human CD16a (158F)-his (human); assay: SPR (Biacore), antibody captured on Protein A
T6 construct: entry holds ECD, AVI tag, linker and His tag
In short: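 Protein A–captured antibody was probed with CD16-his ECD in HBS-EP+ at 25 °C: five 2-fold dilutions from 200 nM, 240 s at 30 μL/min, dissociation up to 600 s. Glycine pH 1.5 regenerated the chip. Apparent KD came from a double-referenced 1:1 Langmuir fit.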

[7] = target: T7, CD16 on primary human NK cells (human, UniProt P08637 17-254); assay: FACS on human NK cells, biotinylated antibody
T7 construct: whole, on cells; also called resting NK cells

[8] = target: T7, CD16 on primary human NK cells; assay: FACS on human NK cells, biotinylated antibody, +10 mg/mL human immunoglobulin
[9] = target: T3, human CD16a (158F), full length, on …; assay: FACS on FlpinCHO cells; remark: listed apart in the source
In short: (§4)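 Trypsinised cells in PBS + 2% BSA were incubated on ice for 1 hour with antibody at a range of concentrations. After washes, mean fluorescence intensity was read by flow cytometry. EC50 values were derived by curve fitting of MFI.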

[10] = target: T4, human CD16a (158V), full length, on …; assay: FACS on FlpinCHO cells; remark: listed apart in the source
In short: as §4

[11] = target: T1, human CD16b (NA1), full length, on …; assay: FACS on FlpinCHO cells
In short: as §1

[12] = target: T2, human CD16b (NA2), full length, on …; assay: FACS on FlpinCHO cells
In short: as §1

[13] = target: T7, CD16 on primary human NK cells; assay: FACS on human NK cells
In short: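 Freshly prepared human NK cells were resuspended at 2×10⁶ cells/ml in PBS+2% (w/w) BSA and incubated 1 h on ice with antibody at varying concentrations. After five PBS washes, flow cytometry gave mean fluorescence intensity, and EC50 was fitted from the MFI curve.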

[14] = target: T5, cynomolgus monkey CD16, full length, on …; assay: FACS on FlpinCHO cells; remark: listed apart in the source
Procedure: as §2, §3

[15] = target: T4, human CD16a (158V), full length, on …; assay: cell-based or functional assay; remark: listed apart in the source
[16] = target: T3, human CD16a (158F), full length, on …; assay: FACS, biotinylated antibody
[17] = target: T4, human CD16a (158V), full length, on …; assay: FACS, biotinylated antibody
[18] = target: T7, CD16 on primary human NK cells; assay: FACS on human NK cells, biotinylated antibody; remark: listed apart in the source
[19] = target: T3, human CD16a (158F), full length, on …; assay: FACS, biotinylated antibody, +10 mg/mL human immunoglobulin
[20] = target: T4, human CD16a (158V), full length, on …; assay: as above
[21] = target: T7, CD16 on primary human NK cells; assay: FACS on human NK cells, biotinylated antibody, +10 mg/mL human immunoglobulin; remark: listed apart in the source

T5 sequence (Q8SPW2 other isoform, or with tags, fused parts or gaps limits assumed): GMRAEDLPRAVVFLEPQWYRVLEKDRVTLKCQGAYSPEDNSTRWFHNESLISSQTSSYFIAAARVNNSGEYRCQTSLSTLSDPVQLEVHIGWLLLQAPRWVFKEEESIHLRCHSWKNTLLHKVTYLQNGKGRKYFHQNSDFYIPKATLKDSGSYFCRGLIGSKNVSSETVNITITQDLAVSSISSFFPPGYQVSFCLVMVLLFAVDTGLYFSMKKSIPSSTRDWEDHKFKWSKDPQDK

EC50 [1] [nM]	Maximum mean fluorescence intensity [1]	EC50 [2] [nM]	Maximum mean fluorescence intensity [2]	EC50 [3] [nM]	Maximum mean fluorescence intensity [3]	Maximum mean fluorescence intensity [4]	EC50 [5] [nM]	Maximum mean fluorescence intensity [5]	EC50, activation activity for Jurkat cell [6] [nM]	Maximum fluorescence value [6]	Kd (Human CD16a (158F)-his) [nM]	koff (Human CD16a (158F)-his) [s⁻¹]	kon (Human CD16a (158F)-his) [M⁻¹ s⁻¹]	EC50 [7] [nM]	Maximum mean fluorescence intensity [7]	EC50 [8] [nM]	Maximum mean fluorescence intensity [8]	Binder	other results
0.35	9340	0.41	8130	0.95	48200	74000	0.55	18300	0.01	122000	53.9	0.0208	385000	0.65	70400	2.48	72100	VHH12-05 humanized VHH-Fc antibody (Fc fusion) EVQLVESGGGLVQPGGSLRLSCAASGITFSSYAMGWYRQAPGKQRELVAAINRFGLTNYVDSVKGRFTISRVNAKNSLYLQMNSLRAEDTAVYYCNTGGVYSHPDYYTGTYWGQGTMVTVSSEPKSSDKTHTCPPCPAPEEFGGPSVFLFPPKPKDTLMISRTPEVTCVVVAVSHEDPEVKFNWYVDGVEVHNAKTKPREEQYNSTYRVVSVLTVLHQDWLNGKEYKCKVSNKALPAPIEKTISKAKGQPREPQVYTLPPSREEMTKNQVSLTCLVKGFYPSDIAVEWESNGQPENNYKTTPPVLDSDGSFFLYSKLTVDKSRWQQGNVFSCSVMHEALHNHYTQKSLSLSPGK	
0.6	8770	0.64	7550	1.94	40600	69800	0.83	18600	0.02	158000	27.6	0.0164	592000	0.53	39300	1.69	38100	VHH12-06 humanized VHH-Fc antibody (Fc fusion) EVQLVESGGGLVQPGGSLRLSCAASGITFSSYAMGWYRQAPGKQRELVAAINRFGLTNYVDSVKGRFTISRDNAKNSVYLQMNSLRAEDTAVYYCNTGGVYSHPDYYTGTYWGQGTMVTVSSEPKSSDKTHTCPPCPAPEEFGGPSVFLFPPKPKDTLMISRTPEVTCVVVAVSHEDPEVKFNWYVDGVEVHNAKTKPREEQYNSTYRVVSVLTVLHQDWLNGKEYKCKVSNKALPAPIEKTISKAKGQPREPQVYTLPPSREEMTKNQVSLTCLVKGFYPSDIAVEWESNGQPENNYKTTPPVLDSDGSFFLYSKLTVDKSRWQQGNVFSCSVMHEALHNHYTQKSLSLSPGK	
0.56	9400	0.54	8800	3.36	43600	63400	0.62	20100	0.06	149000				0.99	30100	4.3	28000	P2C47 scFv-hFc (Fc fusion, also called control antibody P2C47) SYVLTQPSSVSVAPGQTATISCGGHNIGSKNVHWYQQRPGQSPVLVIYQDNKRPSGIPERFSGSNSGNTATLTISGTQAMDEADYYCQVWDNYSVLFGGGTKLTVLGGGGSGGGGSGGGGSQVQLVQSGAEVKKPGESLKVSCKASGYTFTSYYMHWVRQAPGQGLEWMGAIEPMYGSTSYAQKFQGRVTMTRDTSTSTVYMELSSLRSEDTAVYYCARGSAYYYDFADYWGQGTLVTVSSEPKSSDKTHTCPPCPAPEEFGGPSVFLFPPKPKDTLMISRTPEVTCVVVAVSHEDPEVKFNWYVDGVEVHNAKTKPREEQYNSTYRVVSVLTVLHQDWLNGKEYKCKVSNKALPAPIEKTISKAKGQPREPQVYTLPPSREEMTKNQVSLTCLVKGFYPSDIAVEWESNGQPENNYKTTPPVLDSDGSFFLYSKLTVDKSRWQQGNVFSCSVMHEALHNHYTQKSLSLSPGK	EC50 [9]: 0.62 nM and 0.98 nM; EC50 [10]: 0.85 nM and 1.03 nM; EC50 [11]: 3.18 nM and 5.5 nM; EC50 [12]: 14.2 nM and 5.12 nM; EC50 [13]: 0.84 nM; Maximum mean fluorescence intensity [13]: 2540; EC50 [14]: 0.58 nM; Maximum mean fluorescence intensity [14]: 29200; EC50, activation activity for Jurkat cell [15]: 0.04 nM; Maximum fluorescence value [15]: 158000; EC50 [16]: 0.41 nM and 0.39 nM; EC50 [17]: 0.58 nM and 0.77 nM; EC50 [18]: 1.33 nM; Maximum mean fluorescence intensity [18]: 33000; EC50 [19]: 2.97 nM and 2.63 nM; EC50 [20]: 3.32 nM and 2.87 nM; EC50 [21]: 5.4 nM; Maximum mean fluorescence intensity [21]: 30900
